From patent US20260226503A1 (NORTH CAROLINA STATE UNIVERSITY, published 2026)
Where no end group is shown, it is not given here. Toyopearl AF‑Amino‑650M resin = chromatographic resin to which the peptide C-terminus is conjugated

Experiments:
AAV2 capsid [1] = molecular target: T1, AAV2 capsid (adeno-associated virus serotype 2, UniProt P03135 1-735; P03135 1-598; P03135 1-533); assay: bind-and-elute chromatography, pure AAV2, non-competitive mode, pH 7.0; AAV titer by ELISA
T1 construct: Whole assembled capsid, VP1:VP2:VP3 about 1:1:10; AF594-labelled in the library screen; GFP transgene in the lysate runs; a spherical cap of collated PDB structures in the docking; also called adeno-associated virus serotype 2

AAV2 capsid [2] = molecular target: T1, AAV2 capsid; assay: bind-and-elute chromatography, pure AAV2; bound at pH 7.0, eluted with 1 M MgCl2 pH 6.0; ELISA
AAV2 capsid [3] = molecular target: T1, AAV2 capsid; assay: dynamic binding capacity at 10% breakthrough; AAV2 in HEK293 lysate, 3.2e11 vp/mL, PBS pH 7.4, residence time 3 min
AAV9 capsid = AAV9 capsid (adeno-associated virus serotype 9); assay: bind-and-elute chromatography, pure AAV9; bound at pH 7.0, eluted with 1 M MgCl2 pH 6.0; ELISA

Binder	loss (AAV titer in flow-through and wash vs. load) (AAV2 capsid [1]) [%]	yield (AAV titer in elution fraction vs. load) (AAV2 capsid [2]) [%]	DBC10% (vp AAV per mL of resin) (AAV2 capsid [3])	yield (AAV titer in elution fraction vs. load) (AAV9 capsid) [%]
WWIKISG-{Toyopearl AF‑Amino‑650M resin} (Peptide immobilised on chromatographic resin; also called W9) [WWIKISG-Toyopearl resin]	< 1.7	–	–	–
KFNHWFG-{Toyopearl AF‑Amino‑650M resin} (Peptide immobilised on chromatographic resin; also called W1; KFNHWF-Toyopearl) [KFNHWFG-Toyopearl resin]	< 1.7	45	1.33e+13 vp AAV per mL of resin	–
IKIFFFFSG-{Toyopearl AF‑Amino‑650M resin} (Peptide immobilised on chromatographic resin; also called W7) [IKIFFFFSG-Toyopearl resin]	< 1.7	–	1.02e+13 vp AAV per mL of resin	–
FWNWHHFKG-{Toyopearl AF‑Amino‑650M resin} (Peptide immobilised on chromatographic resin; also called W4) [FWNWHHFKG-Toyopearl resin]	< 1.7	–	8.75e+12 vp AAV per mL of resin	43.9
IWWHIAKFG-{Toyopearl AF‑Amino‑650M resin} (Peptide immobilised on chromatographic resin; also called W3) [IWWHIAKFG-Toyopearl resin]	< 1.7	54.9	9.53e+12 vp AAV per mL of resin	61.7
FFNFFKG-{Toyopearl AF‑Amino‑650M resin} (Peptide immobilised on chromatographic resin; also called W10; FFNFFK-Toyopearl) [FFNFFKG-Toyopearl resin]	< 1.7	–	1.4e+13 vp AAV per mL of resin	72.4
IAFKKISIG-{Toyopearl AF‑Amino‑650M resin} (Peptide immobilised on chromatographic resin; also called W6) [IAFKKISIG-Toyopearl resin]	< 1.7	–	–	–
FNHFFIG-{Toyopearl AF‑Amino‑650M resin} (Peptide immobilised on chromatographic resin; also called W11) [FNHFFIG-Toyopearl resin]	< 1.7	–	–	–
KWWIWAG-{Toyopearl AF‑Amino‑650M resin} (Peptide immobilised on chromatographic resin; also called W8) [KWWIWAG-Toyopearl resin]	< 1.7	–	–	57.2
FWWAAFFKG-{Toyopearl AF‑Amino‑650M resin} (Peptide immobilised on chromatographic resin; also called W5) [FWWAAFFKG-Toyopearl resin]	< 1.7	44.8	–	53.7
WKAHNKG-{Toyopearl AF‑Amino‑650M resin} (Peptide immobilised on chromatographic resin; also called W2) [WKAHNKG-Toyopearl resin]	< 1.7	79.8	–	–
